Measured values taken from PMC12012478, “Roquin exhibits opposing effects on RNA stem-loop stability through its two ROQ domain binding sites”.

How the values were obtained:
[1] = target: T1, coreROQ (Roquin-1 core ROQ domain) (murine) (UniProt Q4VGL6); assay: optical tweezers (kinetics, koff/kon); settings: low-salt buffer, Protein/RNA buffer 150 mM NaCl, 50 mM Tris pH 7.0, 1 mM TCEP, OT in low-salt near-physiological buffer (composition not in material), EMSA 3 nM RNA, 0-20 uM …
T1 sequence: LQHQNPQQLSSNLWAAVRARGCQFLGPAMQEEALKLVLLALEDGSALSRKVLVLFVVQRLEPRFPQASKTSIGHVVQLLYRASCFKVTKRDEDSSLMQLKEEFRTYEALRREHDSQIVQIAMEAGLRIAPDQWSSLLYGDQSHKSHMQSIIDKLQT

[2] = target: T2, extROQ (Roquin-1 extended ROQ domain) (murine) (UniProt Q4VGL6); assay: optical tweezers (kinetics, koff/kon); settings: low-salt buffer, Protein/RNA buffer 150 mM NaCl, 50 mM Tris pH 7.0, 1 mM TCEP, OT in low-salt near-physiological buffer (composition not in material), EMSA 3 nM RNA, 0-20 uM …
T2 sequence: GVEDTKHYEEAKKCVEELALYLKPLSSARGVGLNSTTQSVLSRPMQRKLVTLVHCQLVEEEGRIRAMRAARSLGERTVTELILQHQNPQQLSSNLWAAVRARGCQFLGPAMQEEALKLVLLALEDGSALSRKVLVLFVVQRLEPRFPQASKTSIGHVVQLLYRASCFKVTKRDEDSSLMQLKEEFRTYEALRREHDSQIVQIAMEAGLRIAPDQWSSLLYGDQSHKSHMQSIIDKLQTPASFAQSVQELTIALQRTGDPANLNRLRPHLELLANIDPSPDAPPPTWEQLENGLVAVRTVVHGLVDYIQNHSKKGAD

[3] = target: T3, extROQ (Roquin-1 extended ROQ domain) (murine, UniProt Q4VGL6 89-404); assay: hydroxyl radical footprinting; residues 62-87 protected, 88-100 more exposed; Protein/RNA buffer 150 mM NaCl, 50 mM Tris pH 7.0, 1 mM TCEP; OT in low-salt near-physiological buffer (composition not in material); EMSA 3 nM RNA, 0-20 uM protein, 6% native PAGE at 4 C; settings: protein: recombinant; tags: His tag removed by TEV (Ni IMAC; tag type implied); label: 5' fluorescein in EMSA; none stated for NMR/CD; hairpin with hexaloop and central bulge
T3 sequence: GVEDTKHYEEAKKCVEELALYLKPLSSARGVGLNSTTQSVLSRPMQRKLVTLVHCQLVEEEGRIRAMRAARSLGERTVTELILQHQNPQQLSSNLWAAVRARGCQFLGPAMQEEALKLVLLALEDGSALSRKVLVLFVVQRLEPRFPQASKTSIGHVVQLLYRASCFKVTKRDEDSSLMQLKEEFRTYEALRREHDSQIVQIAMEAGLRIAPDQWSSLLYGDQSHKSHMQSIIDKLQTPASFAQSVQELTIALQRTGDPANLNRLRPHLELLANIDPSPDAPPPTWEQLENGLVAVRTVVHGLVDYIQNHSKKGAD

[4] = target: T4, coreROQ (Roquin-1 core ROQ domain) (murine, UniProt Q4VGL6 171-326); assay: as above; settings: protein: recombinant; tags: His tag removed by TEV (Ni IMAC; tag type implied); label: 5' fluorescein in EMSA; none stated for NMR/CD; hairpin with hexaloop and central bulge
T4 sequence: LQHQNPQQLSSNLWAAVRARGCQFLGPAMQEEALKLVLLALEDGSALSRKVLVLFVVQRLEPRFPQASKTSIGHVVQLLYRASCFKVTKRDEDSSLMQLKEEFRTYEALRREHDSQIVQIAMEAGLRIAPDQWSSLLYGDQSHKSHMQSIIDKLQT

GGCAGGGCUGACGUAGUUGGAGUGGUGCGGGAGGGCCUGCCAGUACCCUCCACACCGUUCUAGGUGCUGGGCUGGCUCUGGGCAGUGAGGGCAGAAUUCAGGUG [Ox40 ADE, optical tweezers construct]
Kd ([1]; extrapolated to zero force): 4.8 nM
Kd ([2]; extrapolated to zero force): 1.67 nM

GGCAGGGCUGACGUAGUUGGAGUGGUGCGGGAGGGGCUUUCCUAUGUAUGCUAUGCAUACUACAGUGAGGGCAGAAUUCAGGUG [Ox40 CDE, optical tweezers construct]
Kd ([1]; zero force): 33 nM
Kd ([2]; zero force): 2 nM

B1: Ox40 ADE, bulk RNA (structured_RNA)
RNA: GCCUGCCAGUACCCUCCACACCGUUCUAGGUGCUGGGCUGGCUCUGGGC
binding result [3]: binds
binding result [4]: binds
